Source: patent publication US20190359683A1 (published 2019)
Read-outs that look alike come from different tables or passages of the source. Values belong to the binder of their own block, whether it stands above or below them.

Tests used:
[1] = target: T1, recombinant human cardiotrophin-like cytokine factor 1 (CLCF1) (human, UniProt Q9UBD9 28-225); test: ELISA
T1 chain: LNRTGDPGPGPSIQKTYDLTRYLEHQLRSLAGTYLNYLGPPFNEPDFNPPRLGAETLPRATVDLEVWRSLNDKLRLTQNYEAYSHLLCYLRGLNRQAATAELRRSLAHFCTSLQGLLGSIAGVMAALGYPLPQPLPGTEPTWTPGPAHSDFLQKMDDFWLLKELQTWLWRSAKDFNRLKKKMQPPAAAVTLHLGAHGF

5 = test: yeast display binding; apparent Kd
2 = test: yeast display binding; apparent Kd
1 = test: yeast display binding; apparent Kd
3 = test: yeast display binding; apparent Kd
[2] = target: T1, recombinant human cardiotrophin-like …
[3] = target: T1, recombinant human cardiotrophin-like …

- Kd [1]: 0.063 nM
B1: eCNTFR-Fc (soluble engineered CNTFR fused to mouse IgG2a Fc) (Fc fusion)
chain: QRHSPQEAPHVQYERLGSDVTLPCGTANWDAAVTWRVNGTDLAPDLLNGSQLVLHGLELGHSGLYACFHRDSWHLRHQVLLHVGLPPQEPVLSCRSNTYPKGFYCSWHLPTPTYIPNTFNVTVLHGSKIMVCEKDPALKNRCHIRYMHLFSPIKHNVSISVSNALGHNATAITFDEFTIVKPDPPENVVARPVPSNPRRLEVTWQTPSTWPDPEFFPLKFFLRYRPLILDQWQHVELSDGTAHTIAAAYAGKEYIIQVAAKDNEFGTWSDWSVAAHATPWTEEPRHLTTEAQAAETTTSTTSSLAPPPTTKICDPGELGSRRLEPRGPTIKPCPPCKCPAPNLLGGPSVFIFPPKIKDVLMISLSPIVTCVVVDVSEDDPDVQISWFVNNVEVHTAQTQTHREDYNSTLRVVSALPIQHQDWMSGKEFKCKVNNKDLPAPIERTISKPKGSVRAPQVYVLPPPEEEMTKKQVTLTCMVTDFMPEDIYVEWTNNGKTELNYKNTEPVLDSDGSYFMYSKLRVEKKNWVERNSYSCSVVHEGLHNHHTTKSFSRTPGK

- Kd 5: 740 nM
- Kd 2: 890 nM
- Kd 1: 4100 nM
- Kd 3: 49 nM
B2: CLCF1 (ligand)
chain: LNRTGDPGPGPSIQKTYDLTRYLEHQLRSLAGTYLNYLGPPFNEPDFNPPRLGAETLPRATVDLEVWRSLNDKLRLTQNYEAYSHLLCYLRGLNRQAATAELRRSLAHFCTSLQGLLGSIAGVMAALGYPLPQPLPGTEPTWTPGPAHSDFLQKMDDFWLLKELQTWLWRSAKDFNRLKKKMQPPAAAVTLHLGAHGF

- Kd [1]: 0.075 nM
B3: eCNTFR-HIS (soluble engineered CNTFR with His-tag) (receptor)
chain: QRHSPQEAPHVQYERLGSDVTLPCGTANWDAAVTWRVNGTDLAPDLLNGSQLVLHGLELGHSGLYACFHRDSWHLRHQVLLHVGLPPQEPVLSCRSNTYPKGFYCSWHLPTPTYIPNTFNVTVLHGSKIMVCEKDPALKNRCHIRYMHLFSPIKHNVSISVSNALGHNATAITFDEFTIVKPDPPENVVARPVPSNPRRLEVTWQTPSTWPDPEFFPLKFFLRYRPLILDQWQHVELSDGTAHTIAAAYAGKEYIIQVAAKDNEFGTWSDWSVAAHATPWTEEPRHLTTEAQAAETTTSTTSSLAPPPTTKICDPGELGS

- Kd [2]: 19 nM
- Kd [3]: 0.019 nM
B4: yeast-displayed CNTFR variant 4 (R110Q, T174P, S237F, I287F) (protein)
chain: VYAQRHSPQEAPHVQYERLGSDVTLPCGTANWDAAVTWRVNGTDLAPDLLNGSQLVLHGLELGHSGLYACFHRDSWHLRHQVLLHVGLPPQEPVLSCRSNTYPKGFYCSWHLPTPTYIPNTFNVTVLHGSKIMVCEKDPALKNRCHIRYMHLFSPIKYKVSISVSNALGHNATAITFDEFTIVKPDPPENVVARPVPSNPRRLEVTWQTPSTWPDPEFFPLKFFLRYRPLILDQWQHVELSDGTAHTITDAYAGKEYIIQVAAKDNEFGTWSDWSVAAHATPWTEEPRHLTTEAQAAETTTSTTSSLAPPPTTKICDPGELGS
